Target: histone H2B tagged to mCherry (H2B-mCh) (UniProt P06899)
Assay: FRET or BRET; phasor FLIM-FRET in live HeLa nuclei; donor eGFP-HP1α or eGFP-HP1α_(I165E) (stable, endogenous HP1α knocked down), acceptor H2B-mCh transiently transfected; fraction of pixels exhibiting FRET read as chromatin binding

| fraction of pixels exhibiting FRET (chromatin binding) [%] | Substance |
| --- | --- |
| 11 | eGFP tagged to HP1α dimer mutant I165E (eGFP-HP1α_(I165E)) (from UniProt P45973 1-191) (natural protein) |
| 20 | eGFP tagged to wild type HP1α (eGFP-HP1α) (from UniProt P45973 1-191) (natural protein) |

— publication PMC11472067
